For experiment [1], the target named is T1, cynomolgus transferrin receptor (TfR) ectodomain (ECD) (cynomolgus, UniProt Q5RDH6 121-760 (Pongo abelii entry), biotinylated where captured on streptavidin).
T1 construct: also called cyno TfR; cynoTfR; not shown: C-terminal cleavable His- and Avi-tags
T1 chain: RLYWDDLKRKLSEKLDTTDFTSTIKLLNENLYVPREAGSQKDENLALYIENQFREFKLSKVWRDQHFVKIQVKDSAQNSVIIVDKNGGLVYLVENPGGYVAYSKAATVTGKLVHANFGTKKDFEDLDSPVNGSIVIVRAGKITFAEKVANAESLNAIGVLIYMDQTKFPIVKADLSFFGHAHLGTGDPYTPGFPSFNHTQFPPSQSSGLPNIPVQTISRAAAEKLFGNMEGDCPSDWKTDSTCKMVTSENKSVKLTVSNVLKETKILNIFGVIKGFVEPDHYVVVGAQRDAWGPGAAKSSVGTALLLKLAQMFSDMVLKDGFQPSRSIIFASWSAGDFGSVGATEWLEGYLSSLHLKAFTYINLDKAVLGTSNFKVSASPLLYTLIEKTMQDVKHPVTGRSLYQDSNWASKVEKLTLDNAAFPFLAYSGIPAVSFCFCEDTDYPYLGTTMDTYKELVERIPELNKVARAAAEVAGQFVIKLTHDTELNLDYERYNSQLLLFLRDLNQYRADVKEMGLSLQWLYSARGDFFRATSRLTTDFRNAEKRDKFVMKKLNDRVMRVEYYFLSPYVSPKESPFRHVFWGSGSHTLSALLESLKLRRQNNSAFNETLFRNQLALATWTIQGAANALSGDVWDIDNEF
The experiment can be described thus: yeast surface display flow cytometry; yeast-displayed clone stained with 250 nM biotinylated cyno TfR, neutravidin-AF647; median fluorescence intensity. The method, then: (§1) For each clone, two million cells were washed three times in PBS+0.5% BSA at pH 7.4. […] Cells were stained with nuetravidin-Alexafluor647 (AF647) for 30 minutes at 4° C., then washed twice again. Expression was measured using anti-c-myc antibody with anti-chicken-Alexfluor488 (AF488) secondary antibody. Cells were resuspended, and median fluorescence intensity (MFI) of AF647 and AF488 was measured on a BD FACS CantoII. MFI was calculated for the TfR-binding population for each population and plotted with human TfR, cyno TfR, or control binding (FIG. 44).

The target of experiment [2] is T2, human transferrin receptor (TfR) ectodomain (ECD) (human, UniProt P02786 121-760, biotinylated where captured on streptavidin).
T2 construct: also called human TfR; huTfR; not shown: C-terminal cleavable His- and Avi-tags
The experiment can be described thus: yeast surface display flow cytometry; yeast-displayed clone stained with 250 nM biotinylated human TfR, neutravidin-AF647; median fluorescence intensity. The method, then: as §1

B1: 3.2-14 (designed binder)
modified Fc polypeptide displayed on yeast (c-Myc tagged): PCPAPELLGGPSVFLFPPKPKDTLMISRTPEVTCVVVDVSHEDPEVKFNWYVDGVEVHNAKTKPREEQYNSTYRVVSVLTVLHQDWLNGKEYKCKVSNKALPAPIEKTISKAKGQPREPQVYTLPPSRDELTKNQVSLTCLVKGFYPSDIAVEWESLGHVWVGVKTTPPVLDSDGSFFLYSKLTVPKSTWQQGWVFSCSVMHEALHNHYTQKSLSLSPGK
notes: also called CH3C.3.2-14
As for B1, the binding result in experiment [1] and in experiment [2] was “binds” in each case.

B2: 3.2-1 (designed binder)
modified Fc polypeptide displayed on yeast (c-Myc tagged): PCPAPELLGGPSVFLFPPKPKDTLMISRTPEVTCVVVDVSHEDPEVKFNWYVDGVEVHNAKTKPREEQYNSTYRVVSVLTVLHQDWLNGKEYKCKVSNKALPAPIEKTISKAKGQPREPQVYTLPPSRDELTKNQVSLTCLVKGFYPSDIAVEWESLGHVWVNFKTTPPVLDSDGSFFLYSKLTVPKSTWQQGWVFSCSVMHEALHNHYTQKSLSLSPGK
notes: also called CH3C.3.2-1
B2: the binding result in experiment [1] and in experiment [2] was “binds” in each case.

B3: 3.4-19 (designed binder)
modified Fc polypeptide displayed on yeast (c-Myc tagged): PCPAPELLGGPSVFLFPPKPKDTLMISRTPEVTCVVVDVSHEDPEVKFNWYVDGVEVHNAKTKPREEQYNSTYRVVSVLTVLHQDWLNGKEYKCKVSNKALPAPIEKTISKAKGQPREPQVYTLPPSRDELTKNQVSLTCLVKGFYPSDIAVEWESWGHVWSTYKTTPPVLDSDGSFFLYSKLTVPKSNWQQGYVFSCSVMHEALHNHYTQKSLSLSPGK
notes: also called CH3C.3.4-19
B3: the binding result in experiment [1] and in experiment [2] was “binds” throughout.

B4: 3.1-3 (designed binder)
modified Fc polypeptide displayed on yeast (c-Myc tagged): PCPAPELLGGPSVFLFPPKPKDTLMISRTPEVTCVVVDVSHEDPEVKFNWYVDGVEVHNAKTKPREEQYNSTYRVVSVLTVLHQDWLNGKEYKCKVSNKALPAPIEKTISKAKGQPREPQVYTLPPSRDELTKNQVSLTCLVKGFYPSDIAVEWESLGHVWVATKTTPPVLDSDGSFFLYSKLTVPKSTWQQGWVFSCSVMHEALHNHYTQKSLSLSPGK
notes: also called CH3C.3.1-3
As to B4, the binding result in experiment [1] and in experiment [2] was “binds” in each case.

B5: 3.2-24 (designed binder)
modified Fc polypeptide displayed on yeast (c-Myc tagged): PCPAPELLGGPSVFLFPPKPKDTLMISRTPEVTCVVVDVSHEDPEVKFNWYVDGVEVHNAKTKPREEQYNSTYRVVSVLTVLHQDWLNGKEYKCKVSNKALPAPIEKTISKAKGQPREPQVYTLPPSRDELTKNQVSLTCLVKGFYPSDIAVEWESLGHVWVHTKTTPPVLDSDGSFFLYSKLTVPKSTWQQGWVFSCSVMHEALHNHYTQKSLSLSPGK
notes: also called CH3C.3.2-24
As for B5, the binding result in experiment [1] and in experiment [2] was “binds” throughout.

B6: 3.2-17 (designed binder)
modified Fc polypeptide displayed on yeast (c-Myc tagged): PCPAPELLGGPSVFLFPPKPKDTLMISRTPEVTCVVVDVSHEDPEVKFNWYVDGVEVHNAKTKPREEQYNSTYRVVSVLTVLHQDWLNGKEYKCKVSNKALPAPIEKTISKAKGQPREPQVYTLPPSRDELTKNQVSLTCLVKGFYPSDIAVEWESLGHVWVGTKTTPPVLDSDGSFFLYSKLTVPKSTWQQGWVFSCSVMHEALHNHYTQKSLSLSPGK
notes: also called CH3C.3.2-17
B6: the binding result in experiment [1] and in experiment [2] was “binds” in each case.

B7: CH3C.35 (designed binder)
modified Fc polypeptide displayed on yeast (c-Myc tagged): PCPAPELLGGPSVFLFPPKPKDTLMISRTPEVTCVVVDVSHEDPEVKFNWYVDGVEVHNAKTKPREEQYNSTYRVVSVLTVLHQDWLNGKEYKCKVSNKALPAPIEKTISKAKGQPREPQVYTLPPSRDELTKNQVSLTCLVKGFYPSDIAVEWESYGTEWSSYKTTPPVLDSDGSFFLYSKLTVTKSEWQQGFVFSCSVMHEALHNHYTQKSLSLSPGK
For the molecule B7, the binding result in experiment [1] and in experiment [2] was “binds” each time.

B8: 3.2-5 (designed binder)
modified Fc polypeptide displayed on yeast (c-Myc tagged): PCPAPELLGGPSVFLFPPKPKDTLMISRTPEVTCVVVDVSHEDPEVKFNWYVDGVEVHNAKTKPREEQYNSTYRVVSVLTVLHQDWLNGKEYKCKVSNKALPAPIEKTISKAKGQPREPQVYTLPPSRDELTKNQVSLTCLVKGFYPSDIAVEWESLGHVWVDQKTTPPVLDSDGSFFLYSKLTVPKSTWQQGWVFSCSVMHEALHNHYTQKSLSLSPGK
notes: also called CH3C.3.2-5
Take B8: the binding result in experiment [1] and in experiment [2] was “binds” each time.

B9: 3.4-1 (designed binder)
modified Fc polypeptide displayed on yeast (c-Myc tagged): PCPAPELLGGPSVFLFPPKPKDTLMISRTPEVTCVVVDVSHEDPEVKFNWYVDGVEVHNAKTKPREEQYNSTYRVVSVLTVLHQDWLNGKEYKCKVSNKALPAPIEKTISKAKGQPREPQVYTLPPSRDELTKNQVSLTCLVKGFYPSDIAVEWESWGFVWSTYKTTPPVLDSDGSFFLYSKLTVPKSNWQQGFVFSCSVMHEALHNHYTQKSLSLSPGK
notes: also called CH3C.3.4-1
As for B9, the binding result in experiment [1] and in experiment [2] was “binds” throughout.

B10: 3.4-26 (designed binder)
modified Fc polypeptide displayed on yeast (c-Myc tagged): PCPAPELLGGPSVFLFPPKPKDTLMISRTPEVTCVVVDVSHEDPEVKFNWYVDGVEVHNAKTKPREEQYNSTYRVVSVLTVLHQDWLNGKEYKCKVSNKALPAPIEKTISKAKGQPREPQVYTLPPSRDELTKNQVSLTCLVKGFYPSDIAVEWESWGTVWGTYKTTPPVLDSDGSFFLYSKLTVPKSNWQQGYVFSCSVMHEALHNHYTQKSLSLSPGK
notes: also called CH3C.3.4-26
Regarding B10, the binding result in experiment [1] and in experiment [2] was “binds” in each case.

B11: 3.2-3 (designed binder)
modified Fc polypeptide displayed on yeast (c-Myc tagged): PCPAPELLGGPSVFLFPPKPKDTLMISRTPEVTCVVVDVSHEDPEVKFNWYVDGVEVHNAKTKPREEQYNSTYRVVSVLTVLHQDWLNGKEYKCKVSNKALPAPIEKTISKAKGQPREPQVYTLPPSRDELTKNQVSLTCLVKGFYPSDIAVEWESLGHVWVEQKTTPPVLDSDGSFFLYSKLTVPKSTWQQGWVFSCSVMHEALHNHYTQKSLSLSPGK
notes: also called CH3C.3.2-3
Take B11: the binding result in experiment [1] and in experiment [2] was “binds” throughout.

B12: 3.2-19 (designed binder)
modified Fc polypeptide displayed on yeast (c-Myc tagged): PCPAPELLGGPSVFLFPPKPKDTLMISRTPEVTCVVVDVSHEDPEVKFNWYVDGVEVHNAKTKPREEQYNSTYRVVSVLTVLHQDWLNGKEYKCKVSNKALPAPIEKTISKAKGQPREPQVYTLPPSRDELTKNQVSLTCLVKGFYPSDIAVEWESLGHVWVNQKTTPPVLDSDGSFFLYSKLTVPKSTWQQGWVFSCSVMHEALHNHYTQKSLSLSPGK
notes: also called CH3C.3.2-19
On to B12, for which the binding result in experiment [1] and in experiment [2] was “binds” in each case.

The values are drawn from US20240024432A1 (DENALI THERAPEUTICS, published 2024).
